According to the RNAGym collection of RNA variant scans (doi:10.7554/elife.80360):

B1: CPEB3 Ribozyme (parent)
chain: GGGGGCCACAGCAGAAGCGUUCACGUCGCGGCCCCUGUCAGAUUCUGGUGAAUCUGCGAAUUCUGCUGU

Variants of: B1
Assay: self-cleavage, relative activity (ratio to wild type); higher = more cleavage; co-transcriptional

Variant | self-cleavage
G1U G50A | 0.139
G1U G19C | 0.0611
G1U G19U | 0.0505
G1U C63G | 0.111
G2C C29A | 0.0311
G2A C39G | 0.0948
G2C C54G | 0.0261
G1C U69C | 0.396
G1C U69G | 0.409
G2A G31C | 0.0358
G2A G31U | 0.0712
G2C A13C | 0.0327
G1U G14U | 0.0869
G2A C7G | 0.063
G2C A59G | 0.106
G1U U20G | 0.0369
G1U U20C | 0.068
G1U C35G | 0.0241
G2C C63U | 0.0396
G2C C63A | 0.0459
G2C C22G | 0.02
G2C C66G | 0.0186
G2C A52G | 0.0291
G2C A52U | 0.0375

Variant | self-cleavage
G2C C12A | 0.0486
G2A A52C | 0.167
G2C A23G | 0.0311
G2C A23U | 0.1
G2A A40G | 0.105
G2A A40C | 0.0341
G2A U49A | 0.179
G1U C66U | 0.127
G2A G28C | 0.0268
G1U C18A | 0.0311
G1U A52C | 0.112
G2A C32G | 0.0194
G2A C32A | 0.0579
G2A A13U | 0.121
G2A A16C | 0.0551
G2A A16G | 0.179
G2C G25A | 0.0488
G2A G68U | 0.335
G1U C45A | 0.11
G2A A42G | 0.196
G1U U46C | 0.0797
G2A A10U | 0.336
G2A A15G | 0.166
G1U G58A | 0.0859

Variant | self-cleavage
G1C U61A | 0.253
G2C A42U | 0.0317
G2C A42C | 0.0895
G1U G25U | 0.0227
G1U G25A | 0.0632
G1U G25C | 0.0418
G1U C27U | 0.0539
G2C G37C | 0.0304
G1U C24U | 0.0825
G1U C24A | 0.0939
G1C U64G | 0.204
G2A A8C | 0.194
G2C A8G | 0.0226
G1C U55G | 0.135
G2A G41C | 0.0676
G1U G47C | 0.0959
G1U U26A | 0.0674
G1U U26G | 0.0529
G2C G17U | 0.0711
G2A C34G | 0.03
G1U G5U | 0.0243
G1U G5A | 0.101
G2A G65A | 0.163
G2C G14U | 0.0531

Variant | self-cleavage
G1U C9A | 0.181
G2C G5C | 0.0267
G2C G5U | 0.0585
G2A U53A | 0.111
G2A U53C | 0.104
G1U C7U | 0.0859
G2C C24U | 0.0323
G1U U61C | 0.117
G1U C12A | 0.0761
G2A C63A | 0.104
G1U A40G | 0.0819
G1U A40U | 0.0879
G2C C18G | 0.0398
G2C C34G | 0.0583
G1C U62C | 0.264
G2A G25A | 0.0813
G1U G2U | 0.392
G1U A16U | 0.103
G1U A16G | 0.108
G2A C22A | 0.0696
G2C G19A | 0.0455
G2A G5U | 0.0444
G2C G30C | 0.072
G1U U53C | 0.143

Variant | self-cleavage
G1U A60U | 0.033
G1U A60G | 0.128
G1U U38A | 0.0964
G2C C9U | 0.0977
G2A U61A | 0.0537
G2A U61G | 0.0696
G2A A23U | 0.284
G2A C54G | 0.0929
G1U G11C | 0.118
G1U G11U | 0.129
G2C C35U | 0.0408
G2A C24U | 0.0737
G2A C24A | 0.0565
G1U U36A | 0.0485
G1U A23C | 0.171
G1U A23G | 0.141
G1U U69C | 0.284
G1U G56A | 0.111
G2A C18A | 0.0515
G2A C18G | 0.0324
G2A C33G | 0.0627
G1U C33U | 0.214
G1U C33G | 0.102
G2C C27U | 0.0172

Variant | self-cleavage
G1U A15U | 0.0945
G2A U20C | 0.0328
G2A U20A | 0.0398
G1U G30A | 0.0902
G2A A60U | 0.0695
G2A A60G | 0.0573
G1U C39G | 0.103
G1U C34U | 0.147
G1U U21A | 0.054
G2C C39G | 0.0347
G2C C39A | 0.108
G2C A51U | 0.056
G1C U44C | 0.232
G2A U44A | 0.111
G2A U44G | 0.0958
G1C U46G | 0.234
G1C U46A | 0.208
G2A G19C | 0.0616
G2A C12U | 0.201
G2A C12A | 0.0566
G1U G37U | 0.0468
G1U G37C | 0.0508
G1C U67G | 0.312
G2A C45A | 0.132

Variant | self-cleavage
G2A C45U | 0.117
G2C G3U | 0.0339
G2A G4C | 0.0317
G2A G4U | 0.0384
G2A G4A | 0.0501
G1U A10G | 0.0897
G1U A10C | 0.186
G1C U53C | 0.0726
G2C G41A | 0.0552
G1U G17A | 0.0548
G1U G17C | 0.0433
G1U A8G | 0.0916
G2A U38G | 0.0237
G1U A13C | 0.0972
G1U A13G | 0.0953
G2A G17C | 0.0329
G1U G28U | 0.0723
G1C U49A | 0.287
G2A G47U | 0.276
G2A U69C | 0.457
G2C C7G | 0.0326
G1U C54U | 0.136
G1U C57A | 0.0933
